Laboratory results taken from patent US20080280298A1, “SATB1: A DETERMINANT OF MORPHOGENESIS AND TUMOR METASTASIS” (The Regents of the University of California, priority 2005, published 2008).

How the values were obtained:
SATB1 = SATB1 expression in MDA-MB-231 cells stably transfected with shRNA (Western blot, real-time RT-PCR); type: cell-based, human; details: for Expression of SATB1 was lowered by / SATB1 expression levels: MDA-MB-231 cells stably expressing the shRNA; for SATB1 expression levels: remaining expression; for SATB1 expression (in words): Western blot and quantitative RT-PCR, compared to parental MDA-MB-231 cells
Method: It was then tested whether suppression of SATB1 level in the highly metastatic MDA-MB-231 cells would affect their aggressiveness. Short hairpin-interfering RNAs (shRNA) were successfully designed to target SATB1 expression and are identified herein as SEQ ID NOs: 4-7.
Two shRNAs were designed according to SATB1 sequence (GenBank Accession No. NM_002971, hereby incorporated by reference) using siRNA Target Finder (Ambion, Austin, Tex.); The sequences of each oligoduplex were targeted as follows: shRNA2423, 5′-GGATTTGGAAGAGAGTGTC-3′ (SEQ ID NO: 8), or shRNA2595, 5′-GTCCACCTTGTCTTCTCTC-3′ (SEQ ID NO: 9). The oligoduplexes were cloned into the plasmid pSUPER (Oligoengine, Seattle, Wash.). Prepared DNAs were transfected into the aggressive breast cancer cell line MDA-MB-231 by lipofectamine 2000 (Invitrogen) and successfully transfected cells were selected by puromycin at 2 μg/ml or G418 at 1.5 mg/ml from 24 h after transfection. Single MDA-MB-231 cell clone stably expressing either shRNA2423 or shRNA2595 is designated SATB1-shRNA1 MDA or SATB1-shRNA2 MDA cells, respectively. For overexpression of SATB1, full length of SATB1 including 3′UTR was cloned into retroviral vector pLXSN (Clontech, Mountain View, Calif.), and the viral solution was produced using PT67 package cell lines. Hs578T cells were infected with this viral solution, and stably infected cells were selected by G418 at 0.8 mg/ml for 5 days. The status of SATB1 level in manipulated MDA-MB-231 and Hs578T cells were examined by Western blot and real-time RT-PCR.
To evaluate the change of gene expression level depending on SATB1 status, semi-quantitative or real-time RT-PCR analysis of selected genes was performed (primer sequences are available upon request). Total RNA was extracted for cell lines using TR1 reagent (Sigma) followed by RNA clean-up with RNeasy Mini kit (Qiagen, Valencia, Calif.). For semi-quantitative RT-PCR, 5 μg of total RNA was reverse-transcribed into single stranded cDNA using Superscript II RNaseH-reverse transcriptase (Invitrogen) according to the protocol supplied with the kit. PCR cycle was controlled starting from 25 to 40 cycles upon gene-specific primers (20 ng of cDNA/reaction). Each cycle consisted of the following steps, using GeneAmp PCR system 9700 (PerkinElmer Inc., Fremont, Calif.); 94° C. for 30 s, 55° C. for 30 s, and 72° C. for 60 s. PCR products were separated on 1.5% agarose gels and visualized them by staining with ethidium bromide. SYBR Green PCR Core Reagents system was used for real-time monitoring of amplification on ABI 7500 Fast Real-time PCR System (Applied Biosystems, Foster City, Calif.). Absolute quantification method was employed to quantify target DNA fragments in triplicate with following cycling condition; 95° C. for 2 min, followed by 40 cycles of 95° C. for 3 s and 60° C. for 30 s.

MDA-MB-231 cells [1] = assay: Cell growth assay on plastic (2D) and Matrigel (3D); type: cell-based, human; details: 2D and 3D cultures up to 11 days, compared with parental cell line and control cells
Text: Reduction of cell proliferation rate. We examined whether loss of SATB1 expression affects cancer cell proliferation by culturing SATB1-shRNA1 MDA and SATB1-shRNA2 MDA cells on plastic dish {two-dimensional (2D) culture} or on a reconstituted basement membrane derived from Engelbreth-Holm-Swarm Tumor (Matrigel™) {three-dimensional (3D) culture}.
Cell Growth Assay. […] Growth medium were renewed every 4 days. Cells were harvested by trypsin treatment, and counted at each time point using a cell counter (Beckman Coulter, Inc.; Fullerton, Calif.) and haematocytometer. […] Cells were treated with dispase (BD Biosciences, Inc.) for 2 h at 37° C. to be isolated from Matrigel, incubated with trypsin for further 5 min, and counted using a haematocytometer. […]

MDA-MB-231 cells [2] = assay: Cell morphology and immunostaining in 3D Matrigel culture; type: cell-based, human; details: F-actin, β-catenin, integrin α6 immunostaining
Method: Changes in cell morphology. Referring now to FIG. 5, phase contrast micrographs of MDA-MB-231 control cells (control shRNA) or SATB1-shRNA1 MDA cells (SATB1-shRNA1) cultured on plastic (2D) and matrigel (3D) are shown. Major differences in cell morphology were observed when SATB1-shRNA1 MDA cells were grown in 3D culture, compared to control cells. The cell morphology was changed from stellate-like scattered (MDA-MB-231 with control shRNA) to spherical structures (MDA-MB-231 with SATB1-shRNA). […] In addition, MDA-MB-231 cells expressing SATB1-shRNA were able to basally deposit and organize a basement membrane on Matrigel, showing the characteristic acini formation, even though there was a minor difference in morphology as observed in MCF10A control cells.
Immunostaining of cells in culture. Total 1×10^4 cells mixed with Matrigel (5 mg/mL) were plated in 6-well plates pre-coated in a thick layer (1 mm) of Matrigel. Solidified Matrigel was overlaid with Growth medium (DMEM), and renewed at every 4 days. Colony formation and cell morphology was observed under light microscopy after 3 days to 14 days.
Cells were fixed in 4% paraformaldehyde, permeablized in 0.1% Triton X100, and blocked in 5% BSA. […] Staining was detected with secondary Alexa Fluor 488 and/or Alexa Fluor 594 Abs (Molecular Probes). […]

MDA-MB-231 cells [3] = assay: Boyden chamber invasion assay; type: cell-based, human; details: remaining invasiveness
Method: Boyden chamber assay. Boyden chamber chemo-migration assays were performed using a 24-well chemotaxis chamber (BD biosciences, Inc.). Breast cancer cells were seeded in triplicate at 50,000 cells/well onto the upper chambers with a 8 μm polycarbonate filter membrane coated with diluted Matrigel (10-25%) (BD biosciences, Inc.), and incubated at 37° C. in humidified 5% CO2 for 20 hrs. Conditioned media derived from NIH3T3 fibroblast cultures was used as a chemoattractant in the lower chambers. The migrated cells on underside of chambers were fixed in 10% (wt/vol) buffered-formalin and stained with crystal violet. After removal of cells remaining in the top chamber with a cotton swab, the numbers of cells that had migrated through the pores were assessed by light microscopy.

MDA-MB-231 cells [4] = assay: Experimental metastasis assay, tail vein injection into athymic mice, lung nodules; type: in vivo, mouse; details: 1×10^6 cells i.v., nine weeks, six mice
Method: The removal of SATB1 from MDA-MB-231 (aggressive) cells diminished metastatic activity: SATB1-shRNA1 MDA, SATB1-shRNA2 MDA, and control cells (1×10^6 cells) were injected intravenously into the lateral tail vein of 6-week-old athymic mice to evaluate metastasis of these cancer cell lines to lung. In mice, the metastasis of orthotopically grown tumors derived from human MDA-MB-231 cells is a relatively rare event. Therefore, by directly introducing cells into the circulation, we examined the requirement of SATB1 in cancer cell survival in circulation and extravasation to and growth in the lung. By nine weeks after tumor-cell injection, the lungs of mice injected with the control cells had formed numerous nodules, ranging in number from 125 to 160 per lung in all six mice analyzed (FIG. 11a,b). […]
1×10^6 cells MDA-MB-231 cells expressing control-shRNA, SATB1-shRNA1 or SATB1-shRNA2 MDA cells were injected into the tail veins of each mouse, and lungs were examined for metastatic nodules (arrows) 9 weeks later. […] In FIG. 11b, total numbers of metastatic lung nodules from individual mice were counted under a dissection microscope. For lungs of representative mice indicated, human SATB1 expression levels in human breast cancer cells colonized in lungs were analyzed by RT-PCR using human GAPDH as a loading control, with the use of human SATB1 and GAPDH specific oligomers. […]

MDA-MB-231 cells [5] = assay: Tumor growth in mammary fat pads of athymic nude mice; type: in vivo, mouse; details: 6 mice, clone or pool of cells; controls formed large tumors within 39 days (6/6)
Text: We injected control and SATB1-shRNA1 cells into the fourth mammary fat pads of athymic nude mice and monitored tumor growth.

MDA-MB-231 cells [6] = assay: Gene expression profiling (Affymetrix and Codelink microarrays); type: cell-based, human; details: >1.5-fold, under both plastic and Matrigel culture, versus control shRNA
Text: We performed gene expression profiling on MDA-MB-231 cells expressing either control shRNA or SATB1-shRNA1 grown in culture. […] We also categorized those affected genes based on the gene ontology (GO)(URL: <http//www.geneontology.org/index.shtml>) annotation.

B1: SATB1-shRNA2: shRNA against the SATB1 3′UTR, target GTCCACCTTGTCTTCTCTC (SEQ ID NO: 9); SEQ ID NOs: 6/7, expressed from pSUPER-puro (nucleic acid)
chain 1: GATCCCCGTCCACCTTGTCTTCTCTCTTCAAGAGAGAGAGAAGACAAGGTGGACTTTTTGGAAA
chain 2: AGCTTTTCCAAAAAGTCCACCTTGTCTTCTCTCTCTCTTGAAGAGAGAAGACAAGGTGGACGGG
modifications: the letters are possibly those of the target site
In the case of B1, the “Expression of SATB1 was lowered by” value (SATB1) is reported as 90%, the SATB1 expression levels (SATB1) is reported as 12.5%±5.2 and the “SATB1 expression (in words)” value (SATB1) is reported as “greatly reduced”. For the same molecule, the proliferation rates (MDA-MB-231 cells [1]) was “significantly reduced”, the “cell morphology in 3D culture” value (MDA-MB-231 cells [2]) was “organized and polarized morphology, forming acinus-like structures” and the “invasiveness compared with host MDA-MB-231 cells” value (MDA-MB-231 cells [3]) was 20%. For the same molecule, the “lung metastases observed (in words)” value (MDA-MB-231 cells [4]) was “not observed in five out of six mice” and the “number of lung metastases (nodules per lung)” value (MDA-MB-231 cells [4]; control cells 125 to 160 per lung) was “five”.

B2: SATB1-shRNA1: shRNA against the SATB1 coding region, target GGATTTGGAAGAGAGTGTC (SEQ ID NO: 8); SEQ ID NOs: 4/5, expressed from pSUPER-puro (nucleic acid)
chain 1: GATCCCCGGATTTGGAAGAGAGTGTCTTCAAGAGAGACACTCTCTTCCAAATCCTTTTTGGAAA
chain 2: AGCTTTTCCAAAAAGGATTTGGAAGAGAGTGTCTCTCTTGAAGACACTCTCTTCCAAATCCGGG
modifications: target site or template, no part of the molecule
In the case of B2, the “Expression of SATB1 was lowered by” value (SATB1) is reported as 70%, the SATB1 expression levels (SATB1) is reported as 30.4%±3.7 and the “SATB1 expression (in words)” value (SATB1) is reported as “greatly reduced”. The proliferation rates (MDA-MB-231 cells [1]) was “significantly reduced”, the “cell morphology in 3D culture” value (MDA-MB-231 cells [2]) was “organized and polarized morphology, forming acinus-like structures” and the “invasiveness compared with host MDA-MB-231 cells” value (MDA-MB-231 cells [3]) was 20%. For the same molecule, the “tumor growth in mammary fat pads” value (MDA-MB-231 cells [5]) was “either no tumors or greatly reduced tumor growth”, the “downregulated genes upon SATB1 depletion (Tree 1)” value (MDA-MB-231 cells [6]) was 409 genes and the “upregulated genes upon SATB1 depletion (Tree 2)” value (MDA-MB-231 cells [6]) was 456 genes.
